Measured values published in patent US6465254, “Mutant loxP site and applications thereof” (Sumitomo Pharmaceuticals Company, Limited).

Legend:
Conditions in all cases: tags: expressed from recombinant adenovirus AxCANCre in 293 cells
Cre recombinase [1] = molecular target: T1, Cre recombinase (UniProt P06956 P06956:1-343); test: self x self; intermediate 3
Description: Substrate DNA (1 μg) prepared in (3) and cell extract containing Cre (10 μl) prepared in (1) were incubated at 37° C. for 30 min in a 50 μl volume of buffer containing 50 mM Tris-HCl (pH 7.5)/10 mM MgCl2/1 mg/ml bovine serum albumin/1 mM phenylmethylsulfonyl fluoride (PMSF)/5 μg/ml aprotinin. After completion of the reaction, 45 μl of TE buffer (pH 8.0) and 5 μl of EDTA solution (pH 8.0) were added to the reaction mixture, extracted with phenol/chloroform and with chloroform, followed ethanol precipitation. The recovered DNA was dissolveld in 30 μl of TE buffer (pH 8.0) containing RNase A (20 μg/ml). Half volume thereof was digested with restriction enzyme BsaHI. The DNA bands detected by ethidium bromide (EtBr) staining after agarose gel electrophoresis, were analyzed.
Before recombination mediated by Cre, restriction enzyme BsaHI digestion of linear substrate DNA (approx. 4.1 kb) generates four bands of 2.7 kb, 610 bp, 380 bp and 360 bp. On the other hand, as a result of recombination of substrate DNA mediated by Cre, a circular DNA of approx. 4.0 kb containing one mutant loxP, and a linear DNA of approx. 50 bp consisting of only mutant loxP, are produced. Digestion of these DNA with restriction enzyme BsaHI generates four bands of 2.7 kb, 920 bp, 380 bp and 50 bp (refer to FIG. 6).

Cre recombinase [2] = molecular target: T1, Cre recombinase; test: self x self; intermediate 2
Cre recombinase [3] = molecular target: T1, Cre recombinase; test: self x self; intermediate 0

T1 sequence (P06956 whole entry, one chain of several): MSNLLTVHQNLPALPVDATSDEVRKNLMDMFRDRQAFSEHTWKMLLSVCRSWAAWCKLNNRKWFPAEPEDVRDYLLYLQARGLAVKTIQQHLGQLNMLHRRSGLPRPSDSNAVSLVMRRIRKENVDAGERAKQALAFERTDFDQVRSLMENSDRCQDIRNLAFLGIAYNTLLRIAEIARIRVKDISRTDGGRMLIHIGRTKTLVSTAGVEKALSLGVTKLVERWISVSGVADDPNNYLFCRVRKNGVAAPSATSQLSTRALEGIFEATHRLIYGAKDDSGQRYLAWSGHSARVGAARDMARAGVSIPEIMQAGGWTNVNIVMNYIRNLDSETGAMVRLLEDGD

Binder | activity (Cre recombinase [2]) | activity (Cre recombinase [3]) | further results
mutant loxP #81 (dsDNA) DNA 1: ATAACTTCGTATAATGTATGTTATACGAAGTTAT DNA 2: ATAACTTCGTATAACATACATTATACGAAGTTAT | – | – | activity (Cre recombinase [1]): 3 grade 0-9 final product
mutant loxP #2271 (dsDNA) DNA 1: ATAACTTCGTATAAAGTATACTATACGAAGTTAT DNA 2: ATAACTTCGTATAGTATACTTTATACGAAGTTAT | 6 grade 0-9 final product | – | –
mutant loxP #2372 (dsDNA) DNA 1: ATAACTTCGTATAAGGTATCCTATACGAAGTTAT DNA 2: ATAACTTCGTATAGGATACCTTATACGAAGTTAT | 0 grade 0-9 final product | – | –
mutant loxP #4171 (dsDNA) DNA 1: ATAACTTCGTATAATGCATACTATACGAAGTTAT DNA 2: ATAACTTCGTATAGTATGCATTATACGAAGTTAT | – | 4 grade 0-9 final product | –
mutant loxP #4172 (dsDNA) DNA 1: ATAACTTCGTATAATGCATCCTATACGAAGTTAT DNA 2: ATAACTTCGTATAGGATGCATTATACGAAGTTAT | 4 grade 0-9 final product | – | –
mutant loxP #5171 (dsDNA) DNA 1: ATAACTTCGTATAATGTGTACTATACGAAGTTAT DNA 2: ATAACTTCGTATAGTACACATTATACGAAGTTAT | – | 6 grade 0-9 final product | –
mutant loxP #6171 (dsDNA) DNA 1: ATAACTTCGTATAATGTACACTATACGAAGTTAT DNA 2: ATAACTTCGTATAGTGTACATTATACGAAGTTAT | – | 6 grade 0-9 final product | –
